Reference: PMC10710050, “HCMV-secreted glycoprotein gpUL4 inhibits TRAIL-mediated apoptosis and NK cell activation” (Proceedings of the National Academy of Sciences of the …, 2023)

Molecular target: T1, TRAIL (Recombinant Human TRAIL, BioLegend) (human, UniProt P50591 39-281)
T1 construct: TRAIL (TNFSF10), human, recombinant soluble protein from BioLegend; The catalogue number is printed for the ELISA; SPR names BioLegend only; also called TNFSF10; soluble TRAIL; source: bought: BioLegend (cat.no 752902)
T1 sequence (P50591 39-281): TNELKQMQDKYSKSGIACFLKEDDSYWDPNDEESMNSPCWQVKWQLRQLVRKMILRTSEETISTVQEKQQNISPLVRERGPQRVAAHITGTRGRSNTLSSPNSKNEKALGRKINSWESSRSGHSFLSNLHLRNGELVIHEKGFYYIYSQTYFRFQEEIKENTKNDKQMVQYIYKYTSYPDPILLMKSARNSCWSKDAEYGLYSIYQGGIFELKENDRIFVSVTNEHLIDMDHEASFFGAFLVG
Test: SPR; Biacore T100; gpUL4-V5 amine-coupled to a CM5 chip (5000RU), control surface soluble UL141 subtracted; TRAIL or TNFα flowed over (100 nM; kinetics from 3.125, 6.25, 12.5, 25 and 50 nM TRAIL, 1:1 binding fit); 10 mM HEPES, 150 mM NaCl, 0.005% TWEEN-20, pH 7.4
Settings: both partners purified

B1: gpUL4-V5 (HCMV strain Merlin UL4 gene product with C-terminal V5/avitag/6his epitope tag) (natural protein)
chain: FCIFVSCSISTTTAPVEWKSPDRQIPMNITCANYSGTVNGNVTFRGLQNKTEDFLHWLLGWGHKSICSFFPKLQGNKEQHYMYGITNLTYNCTYDRLTLLNLTTENSGKYYFKREDVNSTFYYSCYNLTVT
modifications: N-linked and O-linked glycosylation on the secreted form (eight consensus N-linked sites; positions not given)
notes: the secreted form from the supernatant was used; Secreted glycoprotein; The tag is V5/avitag/6his in this order at the C-terminus; also called UL4 protein; not shown: V5, C-terminal, kept
How did the Kd turn out when B1 was run?
Its Kd is 0.234 nM.

And the koff?
The koff was 0.0002 s⁻¹.

What about the kon of the same binder?
The kon was 867000 M⁻¹ s⁻¹.
